US10669350B2, “Antigen-binding constructs that bind to and inhibit catalase and/or superoxide dismutase as well as pharmaceutical compositions containing them for tumor therapy” (priority 2015, dated 2020)
“Also recorded” adds a separate entry of the source. One block for each molecule: values may come before it.

Key:
[1] = system: MKN-45 gastric carcinoma cells; experiment: Standard preparation for autocrine ROS-controlled apoptosis induction in tumor cells (percentage of apoptotic cells); assay type: cell-based, human; conditions: for apoptosis induction in MKN-45 cells: increasing concentrations, 3-4 hours at 37° C., 5% CO2
Method: (§1) The experiments shown in FIG. 13-24 were carried out with a standard preparation for the apoptosis induction that is based on the method performed in Heinzelmann and Bauer 2010. The tumor cells used were taken from an optimally growing semi-sealed culture, centrifuged and placed in fresh medium. The test was performed in 96-well cell culture plates with 12 500 MKN-45 cells/100 μl medium or 10 000 SHEP cells/100 μl medium. MKN-45 cells grow in suspension, SHEP cells are adherent. The tests with SHEP cells were started as soon as the cells had grown on. By adding increasing concentrations of single domain VHH fragments that either inhibit catalase or SOD the protection of the tumor cells from their own ROS signaling was annulled so that based on the cell-owned extracellular superoxide anion production the NO/peroxynitrite signal path and the HOCl path (with MKN-45 cells) or in case of the SHEP cells only the NO/peroxynitrite path could start when the cells were incubated at 37° C. The analysis of the signal paths was carried out by the application of inhibitors of the NADPH oxidase (AEBSF), the HOCl scavenger taurine, the peroxynitrite scavenger FeTPPS and the singlet oxygen scavenger histidine. In some experiments for comparison instead of the single domain VHH fragments either recombinant Fab fragments or monoclonal antibodies were applied. This is indicated in the respective illustrations.
Double preparations were examined at the times shown in the text by means of phase contrast reverse microscopy for the percentage of apoptotic cells. Here, the classical apoptosis criteria described and documented in Heinzelmann and Bauer 2010 such as condensation of the nucleus, fragmentation of the nucleus, and membrane blebbing were used. Per single preparation at least 250 randomly selected cells were examined for the presence of apoptosis features. […]

human catalase [2] = target: T1, human catalase (Homo sapiens, UniProt P04040); experiment: ELISA selection of clones binding to human catalase
T1 sequence (P04040 2-527 limits assumed): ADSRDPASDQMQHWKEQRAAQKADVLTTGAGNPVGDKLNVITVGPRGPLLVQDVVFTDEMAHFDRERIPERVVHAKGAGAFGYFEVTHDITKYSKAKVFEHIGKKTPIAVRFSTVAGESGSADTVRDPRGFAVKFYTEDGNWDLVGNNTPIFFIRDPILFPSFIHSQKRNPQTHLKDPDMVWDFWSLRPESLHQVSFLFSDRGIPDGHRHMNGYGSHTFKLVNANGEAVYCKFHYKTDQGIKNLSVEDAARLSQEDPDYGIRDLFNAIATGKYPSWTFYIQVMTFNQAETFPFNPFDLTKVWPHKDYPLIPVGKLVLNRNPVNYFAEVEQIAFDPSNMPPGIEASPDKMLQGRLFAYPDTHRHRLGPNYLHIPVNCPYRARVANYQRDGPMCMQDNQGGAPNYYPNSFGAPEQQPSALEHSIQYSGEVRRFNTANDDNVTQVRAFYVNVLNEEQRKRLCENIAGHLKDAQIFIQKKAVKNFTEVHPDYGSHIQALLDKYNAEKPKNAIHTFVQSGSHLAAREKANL
Text: […] […] In a second run, by employing the cell culture system described by Heinzelmann and Bauer (Heinzelmann S. and Bauer G. Multiple protective functions of catalase against intercellular apoptosis-inducing ROS signaling of human tumor cells, Biol. Chem. 391, 675-693, 2010) it was checked which one of the single domain VHH fragments binding to catalase actually results in an inhibition of the catalase, what is expressed as ROS-dependent apoptosis induction in the cells. […] The clones underlying the single domain VHH fragments were sequenced by standard methods and the amino acid sequence was determined therefrom.

human catalase [3] = target: T1, human catalase; experiment: Check for inhibition (neutralization) of catalase, expressed as ROS-dependent apoptosis induction in cell culture system; assay type: cell-based; parameters: catalase-neutralizing single domain VHH fragments only neutralize the membranous catalase of tumor cells; endogenous in cells; host or cells: MKN-45 human gastric carcinoma cells
Text: For the determination of the neutralizing effect of single domain VHH or Fab fragments directed against catalase a test system is suitable that is based on the apoptosis-inducing effect of H2O2 and the degradation of H2O2 by catalase. Here, as the cellular test system both non-malignant and malignant cells can be employed. It is only required that apoptosis induction is quantitatively determinable in the selected cell system. As the H2O2 source, H2O2-generating glucose oxidase (GOX) is preferred over the direct addition of H2O2, because the continuous production of H2O2 by GOX (by using glucose from the culture medium of the cells) allows a very precise adjustment of the H2O2 flux. The test system is based on the inhibition of the apoptosis induction by GOX mediated by catalase and the restoration of the apoptosis induction by catalase-neutralizing single domain VHH or Fab fragments. […] For that, in general depending on the cell system, GOX concentrations between 0.1 and 40 mU/ml are required. In a second step, the concentration of human catalase is determined that is just sufficient to abolish the effect achieved by GOX. […] After successful determination of the suitable concentrations of GOX and catalase then the actual experiment for the determination of the catalase-neutralizing effect of single domain VHH or Fab fragments can be performed. For that, the selected catalase concentration is pre-incubated for 20 minutes with selected concentrations of the single domain VHH or Fab fragments to be tested. Subsequently, said mixture together with the concentration of GOX determined to be suitable is added to the cells and apoptosis induction is measured. A reliable neutralizing effect of the single domain VHH or Fab fragments is obtained if the inhibiting effect of the catalase on the GOX-mediated apoptosis induction was abolished by at least 90%, i.e. if 90% of the apoptosis induction value is achieved that is shown in control preparations without addition of catalase. If there is achieved an abolition of the inhibiting effect of catalase of at least 50% there may be assumed a significant inhibiting effect of the tested single domain VHH or Fab fragment. […]
[…] In a second run, by employing the cell culture system described by Heinzelmann and Bauer (Heinzelmann S. and Bauer G. Multiple protective functions of catalase against intercellular apoptosis-inducing ROS signaling of human tumor cells, Biol. Chem. 391, 675-693, 2010) it was checked which one of the single domain VHH fragments binding to catalase actually results in an inhibition of the catalase, what is expressed as ROS-dependent apoptosis induction in the cells. […] The clones underlying the single domain VHH fragments were sequenced by standard methods and the amino acid sequence was determined therefrom.

[4] = system: human neuroblastoma line SHEP; experiment: Standard preparation for apoptosis induction in SHEP cells (percentage of apoptotic cells); assay type: cell-based
Method: as §1
Double preparations were examined at the times shown in the text by means of phase contrast reverse microscopy for the percentage of apoptotic cells. Here, the classical apoptosis criteria described and documented in Heinzelmann and Bauer 2010 such as condensation of the nucleus, fragmentation of the nucleus, and membrane blebbing were used. Per single preparation at least 250 randomly selected cells were examined for the presence of apoptosis features.
10 000 cells of the human neuroblastoma line SHEP per 100 μl medium were mixed with the given concentrations of the catalase-neutralizing single domain VHH fragment aCATcb0972, the SOD-neutralizing single domain VHH fragment aSOD0989, the SOD-binding but not neutralizing single domain VHH fragment aSODcb991 and the hybrid molecule aCATaSOD and incubated for 5 hours at 37° C., 5% CO2, before percentages of apoptotic cells were determined.
10 000 cells of the human neuroblastoma line SHEP per 100 μl medium were mixed with the given concentrations of the SOD-neutralizing single domain VHH fragment aSOD0989. Parallel preparations received 20 μM or 100 μM of the NO donor sodium nitroprusside or were incubated without a further additive. After 5 hours at 37° C., 5% CO2 the percentages of apoptotic cells were determined.

[5] = Table 2, FIG. 20 experiment, 3.5 hours

Molecule: CC(=O)O[C@H]1C(=O)[C@@]2(C)[C@H]([C@H](OC(=O)c3ccccc3)[C@]3(O)C[C@H](OC(=O)[C@H](O)[C@@H](NC(=O)c4ccccc4)c4ccccc4)C(C)=C1C3(C)C)[C@]1(OC(C)=O)CO[C@@H]1C[C@@H]2O [taxol, reference compound]
- displacement of the required taxol concentration by neutralizing single domain VHH fragments ([1]; 4 hours): less than a thousandth
- optimum effect concentration of taxol alone ([1]; 4 hours): 1100 ng/mL
- apoptosis induction in MKN-45 cells [1]: induces apoptosis in the tumor cells in a concentration-dependent manner

B2: monoclonal aCAT: neutralizing conventional monoclonal antibody against catalase (Sigma) as a control (protein)
VHH: MAQVQLVESGGGLVQAGGSLRLSCAASERTFNTYGMGWFRQAPGKEREFVATISWSGDSTYYADSVKGRFTISRDNAKNTMYLQMNSLKPEDTAVYYCNANSEYGDSYWGQGTQVTVSSKKKHHHHHH
- optimum effect concentration (text, FIG. 20) ([1]; 3.5 hours): 111 ng/mL
- relation to opt. conc. single domain Fab ([1]; Table 1, concentration basis, versus the corresponding single domain VHH): 277 500
- optimum conc. ([1]; Table 1, concentration necessary for optimum apoptosis induction, taken from FIGS. 13A, 13B, 15A, 15B, 20): 111 ng/mL
- relation (molar basis) ([1]; Table 1, versus the corresponding single domain VHH): 46 250
- optimum conc. [1, 5]: 111 ng/mL
- relation to opt. conc. hybrid Fab ([1]; Table 2, concentration basis, versus hybrid aCATaSOD): 4.6 × 10^8
- relation (molar basis) ([1]; Table 2, versus hybrid aCATaSOD): 1.54 × 10^8

B4: aCATaSOD: bispecific hybrid single domain VHH fragment of cb 0972 and cb 0989 connected via a linker; SEQ ID NO: 17 (protein)
VHH: MAQVQLVESGGGLVQAGGSLRLSCAASERTFNTYGMGWFRQAPGKEREFVATISWSGDSTYYADSVKGRFTISRDNAKNTMYLQMNSLKPEDTAVYYCNANSEYGDSYWGQGTQVTVSSGGGGSGGGGSGGGGSAQVQLVESGGGLVQSGGSLTLSCTASGFTISNYPMTWVRQAPGKGLEWVSRINSGGDRTLYADSVKGRFTVSRDNARNTMYLQMNNLKPEDTGLYFCADSGAGWRYWGQGTQVTVSSKKKHHHHHH
modifications: bispecific
- apoptosis induction after siRNA-mediated knockdown of FAS receptor or caspase-8 ([1]; 24 nM siRNA, four hours): does not require the FAS receptor and its downstream caspase-8; also recorded: prevents the supra-optimum drop of the apoptosis induction curve
- apoptosis induction after siRNA-mediated knockdown of NOX1, iNOS2 or caspase-9 ([1]; 24 nM siRNA, four hours): completely prevents the apoptosis induction
- apoptosis induction in the presence of peroxynitrite scavenger FeTPPS ([1]; 25 μM FeTPPS): complete inhibition by FeTPPS
- apoptosis induction in the presence of NOX1 inhibitor AEBSF ([1]; 100 μM AEBSF): completely prevented
- apoptosis induction in the presence of singlet oxygen scavenger histidine ([1]; 2 mM histidine): attenuating effect on the right-side drop of the optimum curve
- apoptosis induction in the presence of HOCl scavenger taurine ([1]; 50 mM taurine): no inhibition by taurine
- optimum conc. [1, 5]: 2.4e-07 ng/mL
- apoptosis induction in MKN-45 cells [1]: gradually superior over the reverse arrangement
- ROS signaling path induced ([1]; inhibitor analysis): exclusively the NO/peroxynitrite path
- efficacy compared with single domain VHH fragments directed against one target structure ([4]; 5 hours): much more effective
- apoptosis induction in SHEP cells ([4]; 5 hours at 37° C., 5% CO2): can induce concentration-dependent apoptosis

The next lines start with the values.

- binding to human catalase (human catalase [2]): bind to human catalase
- neutralization (inhibition) of human catalase (human catalase [3]): neutralize it
B1: aCATcb0974: single domain VHH fragment that binds to and neutralizes human catalase; SEQ ID NO: 12 (protein)
VHH: MAQVQLVESGGGLVQPGGSLRLSCAASGSIFSIASMGWYRQAPGKQRDLVATITSDGSTKYADSVKGRFTISRDNAKNTMYLQMNSVKPEDAAVYYCNADADDLEPGSYDYDYWGQGTQVTVSSKKKHHHHHH
modifications: catalase binding

- binding to human catalase (human catalase [2]): bind to human catalase
- neutralization (inhibition) of human catalase (human catalase [3]): do not neutralize it
B3: aCATcb0975: single domain VHH fragment binding to human catalase, but not neutralizing; SEQ ID NO: 13 (protein)
VHH: MAQVQLVESGGGLVQPGGSLRLSCAASASIFSIYVMAWYRQAPGKQRELVATVTSGGATNYANSVKGRFTISRDNAKNTMDLQMNSLKPEDTAVYYCNAEDYYDYGLSRSKIYWGQGTQVTVSSKKKHHHHHH
modifications: catalase binding

- binding to human catalase (human catalase [2]): bind to human catalase
- neutralization (inhibition) of human catalase (human catalase [3]): do not neutralize it
B5: aCATcb0973: single domain VHH fragment binding to human catalase, but not neutralizing; SEQ ID NO: 11 (protein)
VHH: MAEVQLVESGGGLVQPGGSLRLSCAVSGFIFNTYSMRWGRQAPGKGLEWVSSISTGGYSTYADSVKGRFTISRDNAKNLVYLQMNSLKPEDTAVYYCGWGAFVRGERPQGQGTQVTVSSKKKHHHHHH
modifications: catalase binding
